# Laboratory results reported in the supplement of paper PMC12042874.
# ± gives the uncertainty stated by the source.
# Assay: amyloid nucleation score (Sup35N fusion, yeast selection) (log enrichment); library NNK2; higher = more nucleation; inactive = no reads after selection
# In short: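 The nucleation score is the DiMSum log enrichment of output over input reads, centred on the mode score of non-aggregating sequences. Only sequences with 100 or more input reads were scored, using Illumina sequencing of input and output plasmid inserts. Psi-negative yeast expressing Sup35N fused to peptides of 20 random codons were induced 24 hours with 100 μM copper sulfate and grown 7 days at 30°C on medium lacking adenine and uracil.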
row,Substance,amyloid nucleation score
1,RVTSIVYLKLICFMGVSNLF,inactive
2,RVVQKKQLIV,0.3 ± 0.49
3,RVYDGAVVR,0.547 ± 0.34
4,RVYPFGRTRIFKTM,1.33 ± 0.15
5,RWDCGGGTNCSGENIWQGET,-0.083 ± 0.34
6,RWGMRYIMDWY,0.007 ± 1.1
7,RWHFDYRVKQV,-0.058 ± 0.37
8,RWIATGSGRPETHVILESSG,inactive
9,RWSFRLSTAIQGQPWSTPGD,5.95 ± 0.06
10,RYFINSMFLGWTPFVSVNLS,-0.107 ± 0.27
11,RYGAMKLDTSKS,0.11 ± 0.25
12,RYGRDGDRIIYNVCDFFFSG,6.475 ± 0.047
13,RYIGGSLFFRYNIVGKRQGV,3.81 ± 0.064
14,RYNESEVSISRETRNVVLTF,0.712 ± 0.26
15,RYNLARSLLFHHNTCVFMSV,-0.491 ± 0.53
16,RYQFSATPGVVRWKFEEYSD,-0.047 ± 0.46
17,RYRSTLQYISVMGLDNT,-0.608 ± 0.54
18,RYRWARLHGVLVHDWLLLIW,inactive
19,RYSATLYPTVPPDPLSAWAL,3.8 ± 0.057
20,RYSNKSDDYRGTSYLMYHVM,0.232 ± 0.45
21,RYTCRLFTDTYDSSVVLGAM,1.17 ± 0.37
22,SACIIVN,-0.012 ± 1.1
23,SACRMNWEVGGIGLSVPLCG,0.421 ± 0.2
24,SAFTNRYHLPSERVGHWCPV,0.224 ± 0.74
25,SALCAYIQSLFNDCRTLDKW,-0.5 ± 0.44

row,Substance,amyloid nucleation score
1,SAMQFRSFF,0.94 ± 0.34
2,SAPRNNVATLTEHLERLVLR,-0.767 ± 0.76
3,SARFIIIWNWALSPRPRRCE,7.561 ± 0.041
4,SARHSRDR,2.31 ± 0.066
5,SASLSTRVNNTPLPALTRWV,0.708 ± 0.62
6,SASQDATPHGCGIGISLNTR,2.79 ± 0.068
7,SCEVVSRKL,1.08 ± 0.22
8,SCLIGLRLVLSLTAHDTETA,3.97 ± 0.11
9,SCLVVLHIIAVISMVFSSIL,inactive
10,SCNAGVGSIS,-0.011 ± 0.46
11,SCNGCSSMRDIFIFHGLLHN,7.165 ± 0.033
12,SCNQCYFFQEVKRSVLVIKT,3.59 ± 0.066
13,SCNQDYTDSLSRAELKVDSS,-1.07 ± 0.62
14,SCQFWSTFCTSC,0.378 ± 0.74
15,SCRRADFGMAVVHSLLVCGE,0.709 ± 0.66
16,SCRRWHLFLGWCIDVVESIY,1.56 ± 0.13
17,SCSIPELNNEGIKVCFMNTE,1.27 ± 0.13
18,SCVVLNSYQCTAKRY,0.284 ± 1.1
19,SCYLVYEFLLTGVSWWQSRL,0.794 ± 0.48
20,SDAVSSILSFYRVPRAVGPE,inactive
21,SDCLGKSVVVYNLLGFGR,4.791 ± 0.045
22,SDCVTFATCWM,0.096 ± 0.49
23,SDDFTYSIYFMSWFFYGSYN,inactive
24,SDHLCRYV,-0.095 ± 1.1
25,SDHMYMIFMTMFVVVSHWVI,-0.795 ± 0.76

row,Substance,amyloid nucleation score
1,SDKGYCSTFNMRQALWDYGQ,0.081 ± 1.1
2,SDLFVNICCRPNRMGV,-0.521 ± 0.48
3,SDLWSIPFFGFGDPPMGFFR,inactive
4,SDLYNSSFEVLYSSYCPDVW,inactive
5,SDNTLCLTGDSAYN,0.307 ± 0.2
6,SDPLSFGFGQMWIGVHNEFY,2.2 ± 0.16
7,SDPSNLSMMCTQQRLAGSD,-0.189 ± 0.49
8,SDRGLRACQCVCWDFDSISM,6.212 ± 0.046
9,SDSSRFVDKGSYRYKRREWE,-0.161 ± 0.65
10,SDSTSVLPGRTYWVHFSAQG,0.086 ± 0.61
11,SDTKCLHY,inactive
12,SDVSREVKV,-0.038 ± 0.37
13,SDVYLTICHFFGHNLKVLPR,1.38 ± 0.26
14,SEGIADVLSVSCWCYPCRPY,-1.21 ± 1.1
15,SEGRATARQLLVKDTLFV,4.06 ± 0.088
16,SELPDIRWHTGWMFLSCAWN,-0.397 ± 0.63
17,SELRKVRCNG,0.813 ± 0.46
18,SEMDPNKAMRIGW,0.174 ± 0.21
19,SEVHSWANGKVLTLYSRMWL,0.885 ± 0.28
20,SFCVLIRYNRFGAIS,1.24 ± 0.22
21,SFCWRYMCRFVMDSFITVPR,-0.423 ± 0.34
22,SFDIPT,-0.444 ± 0.63
23,SFDVLL,-0.568 ± 0.64
24,SFGDTSKRWLFAVGGCKCRL,0.371 ± 0.51
25,SFGRAENNSSARDMYV,-0.535 ± 0.28

row,Substance,amyloid nucleation score
1,SFIGLETCQFSFHLIF,4.15 ± 0.092
2,SFIWHLPFVC,1.24 ± 0.4
3,SFKLYLYVGAVFFRLLSLVS,-1.08 ± 0.76
4,SFLIFRDVSFAGEGL,-1.21 ± 1.1
5,SFLYLPDGTDMI,0.171 ± 0.29
6,SFNNVKLDGRSF,-0.59 ± 0.64
7,SFQCSWIG,3.04 ± 0.088
8,SFQPMRQFNFMINLWTVGAA,7.179 ± 0.056
9,SFRYLCIRNGTSYGMYTSPV,0.478 ± 0.8
10,SFSCNNSLDYKGNFS,1.48 ± 0.18
11,SFSDVLNSGVRCF,0.234 ± 0.35
12,SFTCALRLGVRGHWLIVTSF,0.276 ± 1
13,SFVTTKSSFL,-0.205 ± 0.74
14,SFYDARYFQCDVFAVVRIRR,0.853 ± 0.47
15,SFYIRGYISFLGHRTW,2.57 ± 0.17
16,SGCPNDWQYFSS,-1.08 ± 0.54
17,SGDLMYSGRTSPMPAAQKFV,-0.393 ± 1.1
18,SGGVR,0.94 ± 0.32
19,SGHTFVFFYDSK,5.95 ± 0.061
20,SGIGVNSGAGRNMDLCDLKR,inactive
21,SGNAGLFNRARGSVVTAVLV,0.463 ± 0.64
22,SGRIYSGDETMFRWECRYWC,3.25 ± 0.051
23,SGVIEIMFEKSHRLHCCLFC,1.08 ± 0.41
24,SGWELRQITFGMTDCIGG,-0.328 ± 0.42
25,SGYMAHVLVFLSEGISVPC,inactive

row,Substance,amyloid nucleation score
1,SHCGHRSATGVLSPLQTKGH,-0.159 ± 0.54
2,SHEFSRMLEEFWDHNNVRSH,-1.1 ± 0.48
3,SHFADSKVHVWSMSQLATCC,0.22 ± 0.29
4,SHGPLR,5.556 ± 0.053
5,SHILSNVTYGLADVAFCACS,7.542 ± 0.067
6,SHINFYVLEFWTFRIGDVFV,inactive
7,SHIPIWRKLSVQFSVKIVLE,-0.637 ± 1.1
8,SHNDISSRC,-0.795 ± 0.49
9,SHQLICFSWRLDFYHRGLLQ,2.5 ± 0.13
10,SHRCELKWTGLVMNYKVVHC,1.71 ± 0.25
11,SHTWKQMRYYLDNWSLY,-0.288 ± 1
12,SIAGVIMVDSSSLSM,-1.01 ± 0.78
13,SIDSRYW,-0.283 ± 0.63
14,SIFRWKREKAVGLYPLHQVA,-0.094 ± 0.76
15,SIFVTYSLRTYINYK,5.95 ± 0.062
16,SIILLDYCPRRNSSTIALRH,-0.118 ± 0.43
17,SILATYPMVRSRISIMNATL,-0.174 ± 0.28
18,SILFFKGGLRRSLEHLACTA,0.635 ± 0.52
19,SILLLIKVYFWGLCNPMILA,-1.65 ± 1
20,SILLRKRQELSNFTMW,-0.67 ± 0.76
21,SIMGYGFDVRCELCDVTGGW,-0.079 ± 0.53
22,SINLLLGAGVVGGGLVLYGS,2.45 ± 0.14
23,SINYKALAS,inactive
24,SIRLYSCSMVLTSSSVNCYQ,1.86 ± 0.17
25,SIRSFSFISESNQLLEHVRK,0.119 ± 0.54

row,Substance,amyloid nucleation score
1,SISLLMICCDL,8.511 ± 0.04
2,SITFFKNAFVAIHIAR,inactive
3,SIWINFLNLWYQCFISSILG,inactive
4,SIYFKVIATTSVYRLMPTVW,-0.291 ± 0.74
5,SKCLSIPISCFTCVLLCYFF,0.936 ± 0.17
6,SKCVWIKDQNFFQVDTNESI,1.73 ± 0.34
7,SKDMCRRCCIRNLRRMSDSN,-0.443 ± 0.26
8,SKFFCVSSVRFRLCVWG,-0.14 ± 1
9,SKFNFIYCAGDQLSYRYRLG,-0.728 ± 1
10,SKFVSKSEV,-0.983 ± 1.1
11,SKGSWIDVSYDLV,-0.132 ± 0.37
12,SKHFIVTVLTAITSNVSFSM,2.38 ± 0.066
13,SKIVCDMFLGHEDLPCTRLF,0.057 ± 1.1
14,SKNVFKMGLDTSH,-1.22 ± 0.32
15,SKQTITFRSVQEDSWRRFGH,5.49 ± 0.076
16,SKVRLQSGYTKHERKNFHWL,-0.001 ± 0.34
17,SKVSKGLHST,inactive
18,SKWYVGRHFPPWPR,0.769 ± 0.24
19,SLAFNPISCAANLPFFHIQF,0.29 ± 0.77
20,SLAFYTTYNNKILGNS,3.08 ± 0.069
21,SLARSTRFLYWSGNELVFIS,3.66 ± 0.082
22,SLCPCLMIIS,-0.852 ± 0.38
23,SLEGKSWGCSTSNSLKGDKG,-0.06 ± 1.1
24,SLFDFAVFNMNYESNACISR,0.451 ± 0.27
25,SLFRVKGAVLEVLVPRMLLY,0.51 ± 0.41

row,Substance,amyloid nucleation score
1,SLFVITYRPAYSSDFILNGG,0.763 ± 0.43
2,SLGIQRARNAMSNTPFALGS,0.596 ± 0.36
3,SLHRFYYSHLYALRMRGNSR,6.16 ± 0.091
4,SLKVHSWFGNIYSDFLLTSV,-0.55 ± 0.79
5,SLNYIFLNLCRYLSCGIYIH,inactive
6,SLPIVEDITGYPLRSHWG,0.172 ± 0.27
7,SLPPLMWGAMMRRRRRGSST,5.717 ± 0.056
8,SLRFGYNFKFLAMIKFPHIR,-0.644 ± 0.78
9,SLRYLHFGVDHLS,3.94 ± 0.055
10,SLSDYFGEWISA,-0.422 ± 1.1
11,SLSFLKSGPLA,inactive
12,SLSRCALL,-0.789 ± 0.39
13,SLSRGLC,0.404 ± 0.45
14,SLSWLWFLNSKSRMSTDISV,inactive
15,SLVCM,-0.713 ± 0.29
16,SLVLVDFAYSWMSGSAFWFF,-1.09 ± 1.1
17,SLVYKGLCILSTLFLYFDFL,-0.337 ± 1
18,SLYCF,inactive
19,SLYKHSTHWRLCSTMAIVKP,0.953 ± 0.51
20,SLYLSWYDIFLMYGCWNVVR,0.638 ± 0.37
